How the values were obtained:
[1] = molecular target: Synthetic RH5Nt peptide (F1-K116 with an additional C-terminal cysteine) (P. falciparum); assay: SPR
[2] = molecular target: RH5Nt (F1-K116), biotinylated SPR ligand (P. falciparum (3D7 strain)); assay: SPR
Basigin (Homo sapiens) = Basigin (Homo sapiens) (UniProt P35613); conditions: cited from earlier work
[3] = molecular target: Basigin ectodomain, AVEXIS bait or prey and biotinylated SPR ligand (human) (UniProt P35613); assay: SPR
[4] = molecular target: P113 Y1-N653, biotinylated SPR ligand (P. falciparum (3D7 strain)); assay: SPR
[5] = molecular target: P113 Y1-K197, biotinylated SPR ligand (P. falciparum (3D7 strain)); assay: SPR
[6] = molecular target: P113 entire ectodomain, AVEXIS bait or prey and biotinylated SPR ligand (P. falciparum (3D7 strain)); assay: SPR
[7] = molecular target: purified P113 entire ectodomain (P113 EE) (P. falciparum (3D7 strain)); assay: native gel or EMSA; fractions of the gel filtration peak resolved by native PAGE (Bis-Tris, 150 V) against denaturing SDS-PAGE
[8] = molecular target: P113 entire ectodomain, AVEXIS bait and prey forms (P. falciparum (3D7 strain)); assay: SPR

P113 Y1-N653, purified SPR analyte (domain or fragment)
Kd [1]: 5.7 µM
koff [1]: 1.24 s⁻¹
kon [1]: 216000 M⁻¹ s⁻¹
Kd [2]: 5 µM
koff [2]: 1.54 s⁻¹
kon [2]: 304000 M⁻¹ s⁻¹

RH5 (from UniProt Q8IFM5)
Kd (Basigin (Homo sapiens)): 1 µM

RH5Ct (major processed form of RH5), purified monomeric SPR analyte (domain or fragment)
Kd [3]: 0.9 µM
koff [3]: 0.293 s⁻¹
kon [3]: 342000 M⁻¹ s⁻¹

RH5FL, purified monomeric SPR analyte (from UniProt Q8IFM5 25-526) (natural protein)
Kd [4]: 0.5 µM
Kd [3]: 1.3 µM
Kd [5]: 1.1 µM

RH5Nt (N-terminal region of RH5, F1-K116), purified monomeric SPR analyte (domain or fragment)
Kd [6]: 2.7 µM
koff [6]: 0.793 s⁻¹
kon [6]: 300000 M⁻¹ s⁻¹

purified P113 entire ectodomain (P113 EE) (natural protein)
stoichiometry N [7]: 4

purified monomeric RH5Nt (F1-K116) (domain or fragment)
Kd [8]: 3 µM

purified monomeric full-length RH5 (RH5FL) (from UniProt Q8IFM5 25-526) (natural protein)
Kd [8]: 0.3 µM
